Drawing on patent US20190100597A1, this text covers CDC (IC50) on Raji cells, CDC EC50 on DOHH-2 cells and CDC EC50 on Z-138 cells for one substance.

This experiment deals with human CD20 on CD20-expressing cell lines (human) (UniProt P11836). Nature of the experiment: cell-based or functional assay.
Sequence of human CD20 on CD20-expressing cell lines (human) (P11836 whole entry): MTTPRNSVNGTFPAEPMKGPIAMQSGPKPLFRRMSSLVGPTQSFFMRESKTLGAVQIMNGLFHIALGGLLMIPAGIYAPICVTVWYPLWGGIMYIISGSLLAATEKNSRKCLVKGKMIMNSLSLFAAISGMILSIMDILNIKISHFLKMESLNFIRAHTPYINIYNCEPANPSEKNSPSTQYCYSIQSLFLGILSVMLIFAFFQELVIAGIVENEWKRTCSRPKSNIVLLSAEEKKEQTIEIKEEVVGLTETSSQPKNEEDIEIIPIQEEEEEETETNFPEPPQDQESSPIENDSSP

Sequence of rituximab-derived anti-human CD20 IgM+J (antibody) (heavy): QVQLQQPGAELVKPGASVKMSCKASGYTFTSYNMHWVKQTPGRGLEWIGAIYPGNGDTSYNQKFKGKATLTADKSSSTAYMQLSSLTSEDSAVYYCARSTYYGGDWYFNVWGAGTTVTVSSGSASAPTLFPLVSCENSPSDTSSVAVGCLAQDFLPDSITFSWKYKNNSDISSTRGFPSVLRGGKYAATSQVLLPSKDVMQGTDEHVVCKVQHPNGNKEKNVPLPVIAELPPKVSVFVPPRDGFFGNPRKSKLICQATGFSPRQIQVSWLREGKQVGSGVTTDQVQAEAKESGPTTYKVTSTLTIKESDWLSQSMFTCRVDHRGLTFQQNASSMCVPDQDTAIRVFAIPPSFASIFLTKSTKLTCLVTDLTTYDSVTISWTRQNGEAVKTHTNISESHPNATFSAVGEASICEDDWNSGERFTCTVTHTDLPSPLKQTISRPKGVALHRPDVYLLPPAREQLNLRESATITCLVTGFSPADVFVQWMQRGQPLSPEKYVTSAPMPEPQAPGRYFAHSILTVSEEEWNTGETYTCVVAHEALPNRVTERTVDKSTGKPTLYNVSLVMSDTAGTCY
Sequence of rituximab-derived anti-human CD20 IgM+J (antibody) (light): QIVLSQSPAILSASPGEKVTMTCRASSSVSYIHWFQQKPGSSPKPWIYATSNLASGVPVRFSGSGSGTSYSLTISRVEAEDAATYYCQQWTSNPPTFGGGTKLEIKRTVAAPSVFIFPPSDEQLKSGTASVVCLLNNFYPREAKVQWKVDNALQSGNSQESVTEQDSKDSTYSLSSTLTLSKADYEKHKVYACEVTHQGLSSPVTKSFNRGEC
Sequence of rituximab-derived anti-human CD20 IgM+J (antibody) (chain): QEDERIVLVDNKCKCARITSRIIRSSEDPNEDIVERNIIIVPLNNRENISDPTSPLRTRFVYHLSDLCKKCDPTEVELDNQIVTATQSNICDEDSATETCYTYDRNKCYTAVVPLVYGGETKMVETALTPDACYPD

“rituximab-derived anti-human CD20 IgM+J (antibody)” yielded a CDC (IC50) on Raji cells of 2 µg/mL, a CDC EC50 on DOHH-2 cells of 90 pM and a CDC EC50 on Z-138 cells of 410 pM.
